This is an account of results in patent US20150368338A1 (Janssen / Centocor, published 2015).

What all share (test): ProteOn, one antigen concentration
For assay [1], the target named is T1, human IFN-ω (human, UniProt P05000 24-195).
T1 construct: also called interferon omega

Assay [2] concerns the target T2, IFN-αC (human, UniProt P01566 24-189).
T2 construct: also called IFN-α10; alpha C

Assay [3] addresses T3, IFN-αF (human, UniProt P01568 24-189).
T3 construct: also called IFN-α21; alpha F
T3 chain: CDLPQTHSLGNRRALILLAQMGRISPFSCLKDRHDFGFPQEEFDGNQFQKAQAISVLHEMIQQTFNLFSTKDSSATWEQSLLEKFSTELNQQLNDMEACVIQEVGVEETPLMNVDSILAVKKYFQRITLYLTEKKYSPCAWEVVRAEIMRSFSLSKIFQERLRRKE

In assay [4] the target is T4, IFN-αJ1 (human, UniProt P01567 24-189).
T4 construct: also called IFN-α7; alpha J1

In assay [5] the target is T5, IFN-αG (human, UniProt P01569 24-189).
T5 construct: also called IFN-α5; alpha G

In assay [6] the target is T6, IFN-αWA (human, UniProt P05015 24-189).
T6 construct: also called IFN-α16; alpha WA

Assay [7] has as its target T7, IFN-α4a (human, UniProt P05014 24-189).
T7 construct: also called IFN-αM1

B1: IFWM371 (antibody, V domains shown)
VH: EVQLVQSGAEVKKPGESLKISCKGSGYSFTSYWIGWVRQMPGKGLEWMGIIDPSDSDTRYSPSFQGQVTISADKSISTAYLQWSSLKASDTAMYYCARHPGLNWAPDFDYWGQGTLVTVSS
VL: not shown
notes: VH IFWH591, VL PH9L4; parental mAb, IgG1/kappa; also called IFWB351
What is called Kd is the concentration at which binding is half-saturated. Low readings indicate a tighter complex, high ones a looser complex. On to B1, for which the Kd in assay [1] is 1060 pM; in assay [2] it was 865 pM; in assay [3], 775 pM; in assay [4], 4230 pM; in assay [5], 263 pM; in assay [6], 1390 pM.

B2: IFWM3292 (antibody, V domains shown)
VH: EVQLVQSGAEVKKPGESLKISCKGSGYSFTSYWIGWVRQMPGKGLEWMGIIDPSDSDTAYSPSFQGQVTISADKSISTAYLQWSSLKASDTAMYYCARHPGLNWAPDFDYWGQGTLVTVSS
VL: DIQMTQSPSSLSASVGDRVTITCRASQSIDEFLNWYQQKPGKAPKLLIYFASSLQSGVPSRFSGSGSGTDFTLTISSLQPEDFATYYCQQAHSFPLTFGQGTKVEIK
notes: VH IFWH624, VL IFWL999; converted mAb; also called IFWB3027
For B2, the Kd turned out to be 18 pM in assay [1]; 123 pM in assay [2]; 98 pM in assay [3]; 295 pM in assay [4]; 613 pM in assay [7]; 49 pM in assay [5]. In addition, binding in assay [6] was characterised by a dissociation constant (Kd) of 72 pM.

B3: IFWM3303 (antibody, V domains shown)
VH: EVQLVQSGAEVKKPGESLKISCKGSGYSFTSYWIGWVRQMPGKGLEWMGIIDPSDSDTRYSPSFQGQVTISADKSISTAYLQWSSLKASDTAMYYCARHPGLNWAPDFDYWGQGTLVTVSS
VL: DIQMTQSPSSLSASVGDRVTITCRASQSIGSFLNWYQQKPGKAPKLLIYFASSLQSGVPSRFSGSGSGTDFTLTISSLQPEDFATYYCQQSYSIPITFGQGTKVEIK
notes: VH IFWH591, VL IFWL992; converted mAb; also called IFWB3038
Take B3: the Kd is 13 pM in assay [1]; 79 pM in assay [2]; 134 pM in assay [3]; 157 pM in assay [4]; 299 pM in assay [7]; 82 pM in assay [5]. The molecule further returned a Kd in assay [6] of 168 pM.

B4: IFWM3304 (antibody, V domains shown)
VH: EVQLVQSGAEVKKPGESLKISCKGSGYSFTSYWIGWVRQMPGKGLEWMGIIDPSDSDTRYSPSFQGQVTISADKSISTAYLQWSSLKASDTAMYYCARHPGLNWAPDFDYWGQGTLVTVSS
VL: DIQMTQSPSSLSASVGDRVTITCRASQSIGSALNWYQQKPGKAPKLLIYFASSLQSGVPSRFSGSGSGTDFTLTISSLQPEDFATYYCQQSYDFPLTFGQGTKVEIK
notes: VH IFWH591, VL IFWL997; converted mAb; also called IFWB3039
With B4, the Kd in assay [1] was 32 pM; in assay [2] it was 26 pM; in assay [3], 32 pM; in assay [4], 53 pM; in assay [7], 120 pM; in assay [5], 37 pM. The same molecule came in with a Kd in assay [6] of 92 pM.

B5: IFWM3307 (antibody, V domains shown)
VH: EVQLVQSGAEVKKPGESLKISCKGSGYSFTSYWIGWVRQMPGKGLEWMGIIDPSDSDTRYSPSFQGQVTISADKSISTAYLQWSSLKASDTAMYYCARHPGLNWAPDFDYWGQGTLVTVSS
VL: DIQMTQSPSSLSASVGDRVTITCRASQSIGDFLNWYQQKPGKAPKLLIYFASSLQSGVPSRFSGSGSGTDFTLTISSLQPEDFATYYCQQALDFPLTFGQGTKVEIK
notes: VH IFWH591, VL IFWL1001; converted mAb; also called IFWB3042
Regarding B5, the equilibrium dissociation constant (Kd) in assay [1] was 46 pM; in assay [2], 62 pM; in assay [4], 305 pM; in assay [7] it was 426 pM; in assay [5] it was 58 pM; in assay [6] it was 162 pM.

B6: IFWM3302 (antibody, V domains shown)
VH: EVQLVQSGAEVKKPGESLKISCKGSGYSFTSYWIGWVRQMPGKGLEWMGIIDPSDSDTRYSPSFQGQVTISADKSISTAYLQWSSLKASDTAMYYCARHPGLNWAPDFDYWGQGTLVTVSS
VL: DIQMTQSPSSLSASVGDRVTITCRASQSINRFLNWYQQKPGKAPKLLIYAASSLQSGVPSRFSGSGSGTDFTLTISSLQPEDFATYYCQQAIDLPFTFGQGTKVEIK
notes: VH IFWH591, VL IFWL991; converted mAb; also called IFWB3037
For the molecule B6, the Kd in assay [1] turned out to be 52 pM; in assay [2], 83 pM; in assay [3] it was 72 pM; in assay [4] it was 231 pM; in assay [7], 268 pM; in assay [5] it was 98 pM. Also, the Kd in assay [6] came to 168 pM.

B7: IFWM3323 (antibody, V domains shown)
VH: EVQLVQSGAEVKKPGESLKISCKGSGYSFTSYWIGWVRQMPGKGLEWMGIIDPSDSDTRYSPSFQGQVTISADKSISTAYLQWSSLKASDTAMYYCARHPGLNWAPDFDYWGQGTLVTVSS
VL: DIQMTQSPSSLSASVGDRVTITCRASQSITNHLNWYQQKPGKAPKLLIYFASSLQSGVPSRFSGSGSGTDFTLTISSLQPEDFATYYCQQAHNFPLTFGQGTKVEIK
notes: VH IFWH591, VL IFWL1053; converted mAb; also called IFWB3058
For the molecule B7, the Kd is 73 pM in assay [1]; 48 pM in assay [3]; 144 pM in assay [4]; 337 pM in assay [7]; 94 pM in assay [5]; 121 pM in assay [6].

B8: IFWM3301 (antibody, V domains shown)
VH: EVQLVQSGAEVKKPGESLKISCKGSGYSFTSYWIGWVRQMPGKGLEWMGIIDPSDSDTRYSPSFQGQVTISADKSISTAYLQWSSLKASDTAMYYCARHPGLNWAPDFDYWGQGTLVTVSS
VL: DIQMTQSPSSLSASVGDRVTITCRASQSIDGSLNWYQQKPGKAPKLLIYFASSLQSGVPSRFSGSGSGTDFTLTISSLQPEDFATYYCQQSYDFPLTFGQGTKVEIK
notes: VH IFWH591, VL IFWL983; converted mAb; also called IFWB3036
For B8, the Kd in assay [1] came out at 18 pM; in assay [2], 24 pM; in assay [3], 29 pM; in assay [4], 74 pM; in assay [7], 146 pM; in assay [5] it was 29 pM. The molecule further returned a dissociation constant (Kd) in assay [6] of 79 pM.

B9: IFWM3356 (antibody, V domains shown)
VH: EVQLVQSGAEVKKPGESLKISCKGSGYSFTSYWIGWVRQMPGKGLEWMGIIDPSDSDTAYSPSFQGQVTISADKSISTAYLQWSSLKASDTAMYYCARHPGLNWAPDFDYWGQGTLVTVSS
VL: DIQMTQSPSSLSASVGDRVTITCRASQSISKFLNWYQQKPGKAPKLLIYFASSLQSGVPSRFSGSGSGTDFTLTISSLQPEDFATYYCQQSYDFPITFGQGTKVEIK
notes: VH IFWH624, VL IFWL1026; converted mAb; also called IFWB3091
Turning to B9, the Kd in assay [1] worked out at 274 pM.

B10: IFWM3312 (antibody, V domains shown)
VH: EVQLVQSGAEVKKPGESLKISCKGSGYSFTSYWIGWVRQMPGKGLEWMGIIDPSDSDTRYSPSFQGQVTISADKSISTAYLQWSSLKASDTAMYYCARHPGLNWAPDFDYWGQGTLVTVSS
VL: DIQMTQSPSSLSASVGDRVTITCRASQSIDGALNWYQQKPGKAPKLLIYFASSLQSGVPSRFSGSGSGTDFTLTISSLQPEDFATYYCQQSFDFPLTFGQGTKVEIK
notes: VH IFWH591, VL IFWL1010; converted mAb; also called IFWB3047
With B10, the Kd in assay [1] was 13 pM; in assay [3] it was 20 pM; in assay [4], 68 pM; in assay [7], 144 pM; in assay [5] it was 13 pM; in assay [6], 38 pM.

B11: IFWM3313 (antibody, V domains shown)
VH: EVQLVQSGAEVKKPGESLKISCKGSGYSFTSYWIGWVRQMPGKGLEWMGIIDPSDSDTRYSPSFQGQVTISADKSISTAYLQWSSLKASDTAMYYCARHPGLNWAPDFDYWGQGTLVTVSS
VL: DIQMTQSPSSLSASVGDRVTITCRASQSINNFLNWYQQKPGKAPKLLIYFASSLQSGVPSRFSGSGSGTDFTLTISSLQPEDFATYYCQQSFNLPITFGQGTKVEIK
notes: VH IFWH591, VL IFWL1013; converted mAb; also called IFWB3048
Regarding B11, the dissociation constant (Kd) in assay [1] is 56 pM; in assay [3], 84 pM; in assay [4], 221 pM; in assay [7], 354 pM; in assay [5] it was 118 pM; in assay [6], 155 pM.

B12: IFWM3306 (antibody, V domains shown)
VH: EVQLVQSGAEVKKPGESLKISCKGSGYSFTSYWIGWVRQMPGKGLEWMGIIDPSDSDTRYSPSFQGQVTISADKSISTAYLQWSSLKASDTAMYYCARHPGLNWAPDFDYWGQGTLVTVSS
VL: DIQMTQSPSSLSASVGDRVTITCRASQSITNFLNWYQQKPGKAPKLLIYFASSLQSGVPSRFSGSGSGTDFTLTISSLQPEDFATYYCQQSLDFPLTFGQGTKVEIK
notes: VH IFWH591, VL IFWL1000; converted mAb; also called IFWB3041
Take B12: the Kd in assay [1] worked out at 20 pM; in assay [2], 27 pM; in assay [3], 25 pM; in assay [4], 86 pM; in assay [7] it was 147 pM; in assay [5] it was 29 pM. In assay [6], this molecule yielded a dissociation constant Kd of 70 pM.

B13: IFWM3291 (antibody, V domains shown)
VH: EVQLVQSGAEVKKPGESLKISCKGSGYSFTSYWIGWVRQMPGKGLEWMGIIDPSDSDTRYSPSFQGQVTISADKSISTAYLQWSSLKASDTAMYYCARHPGLNWAPDFDYWGQGTLVTVSS
VL: DIQMTQSPSSLSASVGDRVTITCRASQSIDEFLNWYQQKPGKAPKLLIYFASSLQSGVPSRFSGSGSGTDFTLTISSLQPEDFATYYCQQAHSFPLTFGQGTKVEIK
notes: VH IFWH591, VL IFWL999; converted mAb; also called IFWB3026
For the molecule B13, the Kd in assay [1] stood at 28 pM; in assay [2], 45 pM; in assay [3], 51 pM; in assay [4], 122 pM; in assay [7], 317 pM; in assay [5], 67 pM. The molecule further registered a Kd in assay [6] of 125 pM.

B14: IFWM3305 (antibody, V domains shown)
VH: EVQLVQSGAEVKKPGESLKISCKGSGYSFTSYWIGWVRQMPGKGLEWMGIIDPSDSDTRYSPSFQGQVTISADKSISTAYLQWSSLKASDTAMYYCARHPGLNWAPDFDYWGQGTLVTVSS
VL: DIQMTQSPSSLSASVGDRVTITCRASQSISKFLNWYQQKPGKAPKLLIYFASSLQSGVPSRFSGSGSGTDFTLTISSLQPEDFATYYCQQSNTLPFTFGQGTKVEIK
notes: VH IFWH591, VL IFWL998; converted mAb; also called IFWB3040
In the case of B14, the Kd in assay [1] amounted to 31 pM; in assay [2], 114 pM; in assay [3], 113 pM; in assay [4], 154 pM; in assay [7], 223 pM; in assay [5], 127 pM. This molecule also returned a Kd in assay [6] of 201 pM.
